Test results: PMC5768801, “The PII signaling protein from red algae represents an evolutionary link between cyanobacterial and Chloroplastida PII proteins” (Scientific Reports, 2018)

Tests used:
[1] = biological target: T1, N-acetyl-L-glutamate kinase from Synechocystis sp. PCC 6803 with an N-terminal His6 tag (Synechocystis sp. PCC 6803) (UniProt P73326)
T1 sequence: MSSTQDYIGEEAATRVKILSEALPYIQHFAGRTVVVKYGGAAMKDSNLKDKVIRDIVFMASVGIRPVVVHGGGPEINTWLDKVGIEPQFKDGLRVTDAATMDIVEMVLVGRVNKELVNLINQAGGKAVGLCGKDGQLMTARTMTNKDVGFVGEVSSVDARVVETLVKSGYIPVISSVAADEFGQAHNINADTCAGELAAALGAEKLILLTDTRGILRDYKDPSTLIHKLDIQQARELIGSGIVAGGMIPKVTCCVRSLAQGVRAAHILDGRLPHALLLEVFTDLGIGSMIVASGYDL

[2] = biological target: T1, N-acetyl-L-glutamate kinase from Synechocystis sp. PCC 6803 with an N-terminal His6 tag (Synechocystis sp. PCC 6803); remark: listed apart in the source

Sequence of PII protein from the red alga Porphyra purpurea with a C-terminal Strep-tag II (P51254 whole entry): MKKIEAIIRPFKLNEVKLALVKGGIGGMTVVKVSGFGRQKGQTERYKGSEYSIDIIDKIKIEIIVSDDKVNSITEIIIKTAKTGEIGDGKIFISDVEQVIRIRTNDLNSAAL

catalytic efficiency (Kcat/Km) of ScNAGK in the coupled NAGK activity assay, PpPII-complexed (free ScNAGK: 0.55 × 10^3 s^−1M^−1); NAG varied at 10 mM ATP [1]: 2360 s^−1M^−1
relief of ScNAGK from feedback inhibition by arginine: rise of the IC50 for arginine on addition of PpPII (free ScNAGK: IC50 6.2 µM), coupled NAGK assay, without glutamine [2]: 4 fold
Substance: PII protein from the red alga Porphyra purpurea with a C-terminal Strep-tag II (from UniProt P51254 1-112) (natural protein)
